The series relates to RR-Src peptide.

Drawing on patent US20020146797, this text covers KM (mM) for protein substrate RR-Src, ATP saturated and KM (mM) for protein substrate RR-Src, N^6-(cyclopentyl)ATP saturated for two substances.

For “GST-XD4 (glutathione S-transferase fusion of the XD4 fragment of v-Src, wild-type catalytic domain)”, the KM (mM) for protein substrate RR-Src, ATP saturated was determined as 2.6 mM.

With GST-XD4(V323A, I338A), the KM (mM) for protein substrate RR-Src, ATP saturated amounted to 3.1 mM and the KM (mM) for protein substrate RR-Src, N^6-(cyclopentyl)ATP saturated was 2.1 mM.
